The nature of this data set: amyloid nucleation score (Sup35N fusion, yeast selection) (log enrichment); library NNK2; higher = more nucleation; inactive = no reads after selection. The method in brief:
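Using DiMSum, nucleation scores were taken as the log enrichment of output over input reads, centred on the mode score of non-aggregating sequences. The input and output reads came from Illumina sequencing of plasmid inserts, with sequences under 100 input reads excluded. The yeast were psi-negative, expressed Sup35N fused to peptides of 20 random codons, were induced with 100 μM copper sulfate for 24 hours, and were grown 7 days at 30°C on medium lacking adenine and uracil.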

Amyloid nucleation score data for 139 substances are collected here from the supplement of paper PMC12042874.

± gives the uncertainty stated by the source.

Consider SFGWDYVDPQLKNTCTHCRV, for which the amyloid nucleation score was -0.795 ± 0.48.

For the substance KYNDGEFIVVIVGILAYAVV, the amyloid nucleation score was -0.238 ± 0.34.

Regarding SYFHRWRATNFRTHKEAC, the amyloid nucleation score was -1.02 ± 0.34.

Regarding FNNLFIRTADQEVTILDVTH, the amyloid nucleation score is -0.031 ± 1.

Turning to FYLGVALVHNKAWLFLWKDD, the amyloid nucleation score entry is “inactive”.

In turn, AWKAVY had an amyloid nucleation score of -0.585 ± 0.63.

For QFSSLVFAEEKMNPRMCMVR, the amyloid nucleation score is -0.294 ± 0.2.

TFGRRATDNAASMPVSMRGR showed an amyloid nucleation score of 0.424 ± 0.64.

WRLVHCIHTIGYCMPVRLRG yielded an amyloid nucleation score of 3.25 ± 0.088.

HCNLPDWVHGIYMSKS displayed an amyloid nucleation score of 0.127 ± 0.74.

VYVSYVAIFLPEPLVCDNVE returned an amyloid nucleation score of 7.192 ± 0.04.

For ACFWSVIVHTMKRTVQPQPK, the amyloid nucleation score is 3.6 ± 0.09.

In turn, RVIARLLMLWFHPPCSSTKR displayed an amyloid nucleation score of 6.203 ± 0.058.

Substance FIFDR registered an amyloid nucleation score of -0.257 ± 0.54.

With RSLDVLTTVVMRAFNPTRLR, the amyloid nucleation score turned out to be 0.953 ± 0.36.

Substance HDKVCTSLRVVDQCLRPGH returned an amyloid nucleation score of 0.608 ± 0.38.

The substance IRMDGYEIRFSHSLYYLSH yielded an amyloid nucleation score of 2.45 ± 0.081.

For YSMIDTNQFF, the amyloid nucleation score result is “inactive”.

Substance YKRLEMLRMSCTIWTITPPR gave an amyloid nucleation score of 0.234 ± 0.32.

YFIVVFMLSVNKT: the amyloid nucleation score amounted to 0.06 ± 0.54.

The substance GSVRYWK registered an amyloid nucleation score of -0.685 ± 0.36.

Substance WSYHF came in with an amyloid nucleation score of -0.305 ± 0.8.

In turn, DGSHLSKTDVK registered an amyloid nucleation score of 0.113 ± 0.2.

Take GFRIGTLLGTMINSMNCSFI: the amyloid nucleation score was determined as 2.88 ± 0.12.

With IRGCLNMFWLKKWDLPRLYF, the amyloid nucleation score was -0.327 ± 0.63.

Substance FLFLCGTDTFASRNPGRGKG showed an amyloid nucleation score of 0.269 ± 0.51.

Consider NDTWR, for which the amyloid nucleation score came to 3.68 ± 0.049.

VSRFYCKYYSAQWIRYGRAC: the amyloid nucleation score was -0.544 ± 0.36.

For the substance GVVEYRNFADSIVYGSRKFK, the amyloid nucleation score was -0.685 ± 0.76.

As for MSHTVITFFVCIVYSFSHCL, the amyloid nucleation score was found to be 1.86 ± 0.3.

For SILHSPLSVVYASNISCLF, the amyloid nucleation score came out at 7.169 ± 0.066.

In the case of LRQYKRALAVGLDWFPSVLR, the amyloid nucleation score came to 0.113 ± 0.8.

With ILIMGMILNSMYV, the amyloid nucleation score came out at 0.516 ± 0.64.

For the substance ALLWWRVKLSAHYRYGLNYW, the amyloid nucleation score is 0.27 ± 0.4.

YIVCLMESIRI yielded an amyloid nucleation score of 3.2 ± 0.17.

For the substance YNSRNIEDFFVIDLVNWLRL, the amyloid nucleation score is -1.24 ± 1.1.

Regarding SLGHGKYMVCWGWYALGFYK, the amyloid nucleation score was -0.368 ± 0.28.

LMINGRLRDITMDATVYCNS: the amyloid nucleation score came to 0.764 ± 0.2.

As for YLSVPSGQSGGDGFNDESSV, the amyloid nucleation score entry was “inactive”.

Substance CGVFCLV returned an amyloid nucleation score of 1.44 ± 0.41.

In turn, SYGNDNDGTWWS displayed an amyloid nucleation score of 0.676 ± 0.57.

Regarding QYGHCAPDFGSTLLGISST, the amyloid nucleation score was -0.601 ± 0.39.

On to ANGIFAEGGVREDSIH, for which the amyloid nucleation score entry was “inactive”.

Consider RQGFSVSSNRLGVFQSQEPG, for which the amyloid nucleation score is -1.05 ± 0.78.

VGAMLKWLT gave an amyloid nucleation score of 0.378 ± 0.23.

For the substance GVWSITNRFQEIVGNCLCVR, the amyloid nucleation score is 0.576 ± 0.16.

The substance LCRMCIANCLMSCWESSYQV showed an amyloid nucleation score of 3.13 ± 0.17.

Substance LHSCLMCRTSMWSVSIWLKL gave an amyloid nucleation score of -0.049 ± 0.74.

With MSLIKTHGKLTVGDVDFPKF, the amyloid nucleation score is -0.753 ± 0.44.

As to FSNSPVISFGQ, the amyloid nucleation score is -0.541 ± 1.

On to AKYSSLKNMLYGFRRDANMG, for which the amyloid nucleation score came out at 0.296 ± 0.65.

The substance SNTHISYYWGTNVWLHVDIN came in with an amyloid nucleation score of 6.194 ± 0.028.

Substance VMGEKIWSAWYTRDDQLCGS gave an amyloid nucleation score of 0.547 ± 0.36.

In the case of KHFRREW, the amyloid nucleation score is 1.35 ± 0.41.

For the substance NSVSCANYTLHPIAMDWNGP, the amyloid nucleation score entry was “inactive”.

Substance MMIPFVMYYRFDGYVKRHTG had an amyloid nucleation score of -0.512 ± 0.76.

For VCVIISLHRV, the amyloid nucleation score came to 4.99 ± 0.058.

In the case of YMLMREASGLLRPGAEMWFN, the amyloid nucleation score was -0.177 ± 0.45.

Regarding RMGFWSLGSSSYNWYKTCVL, the amyloid nucleation score is 0.043 ± 0.74.

On to AFCLTLTGACLSMSDVARFT, for which the amyloid nucleation score worked out at 4.19 ± 0.098.

In the case of RLSEVTKDYVGTCNLDRLS, the amyloid nucleation score is -0.157 ± 0.29.

SLWVMKCDKDTKYADRSFTL: the amyloid nucleation score is -0.632 ± 1.1.

Consider NYFVNSI, for which the amyloid nucleation score result is “inactive”.

PGSTRAFIMAVWGAPTEWER registered an amyloid nucleation score of 2.86 ± 0.16.

GYIAYATVWGLQDNGSRSIA: the amyloid nucleation score is -0.637 ± 0.25.

For SARRGCYWEAYCATCLKGWM, the amyloid nucleation score was -1.03 ± 0.76.

SYYINFISVRILDLNKFNVQ: the amyloid nucleation score was found to be 5.03 ± 0.11.

Turning to NIVLTLSRGF, the amyloid nucleation score turned out to be 2.56 ± 0.1.

For RRWDHRIHGILSISDIIFLR, the amyloid nucleation score entry was “inactive”.

The substance LKIYLCIPHRRL had an amyloid nucleation score of 0.082 ± 1.1.

In turn, LGLTYGHHWY registered an amyloid nucleation score of 3.12 ± 0.071.

For the substance KDLRWVLRWC, the amyloid nucleation score came to 0.912 ± 0.26.

Consider SGFTVEESWTLLCRIVSREG, for which the amyloid nucleation score turned out to be 1.22 ± 0.34.

PCWLNGWERFHIWRFNGSVR yielded an amyloid nucleation score of -0.281 ± 0.37.

In turn, ASDRWMVYLIHVTSCYVLRV gave an amyloid nucleation score of -0.062 ± 0.41.

With TDVRGDTSRGLGSFKLFRIM, the amyloid nucleation score was -0.354 ± 0.76.

The substance AALNDNTSL showed an amyloid nucleation score of 5.71 ± 0.079.

In the case of NRGEDSPSYPGCHHMKLCIC, the amyloid nucleation score result is “inactive”.

As to DNMDFMMCKINSGLNLTLSS, the amyloid nucleation score is -2.33 ± 0.62.

For ILCLF, the amyloid nucleation score was 0.909 ± 0.45.

For IYKSRRVRHVLDVVL, the amyloid nucleation score is -0.241 ± 0.56.

RACADGTSEPNAVALCLNAV showed an amyloid nucleation score of 0.832 ± 0.43.

The substance AFVCMRVVLICKIRLNFVRA came in with an amyloid nucleation score of -0.519 ± 0.5.

LIAQMM gave an amyloid nucleation score of -1.22 ± 0.48.

In turn, HEPGLPVRSCNVGRHSLSIL displayed an amyloid nucleation score of 0.522 ± 0.42.

Substance YKYMGLFSSIFNVLGSLISY registered an amyloid nucleation score of -1.95 ± 1.1.

CDVFMQAKIASVMGYDVQRA registered an amyloid nucleation score of -0.225 ± 0.41.

RFYRIDAKVAYQWAYQF: the amyloid nucleation score is 3.94 ± 0.12.

With WVVRPPDTLVLDETRVGSGM, the amyloid nucleation score came out at 0.699 ± 0.34.

The substance MSFWMSTTINRN displayed an amyloid nucleation score of 1.67 ± 0.1.

On to WVTWLISCCYNRLEQGCLAF, for which the amyloid nucleation score turned out to be 0.097 ± 0.63.

In turn, CASVSQGPKQLLPPNVTGLY gave an amyloid nucleation score of -0.176 ± 0.45.

PKSLCYSTLTRGWCQM gave an amyloid nucleation score of -0.418 ± 1.

For the substance DSWFEQCVVFWLKTNCPQQE, the amyloid nucleation score is -0.069 ± 0.25.

As to IPYSSPS, the amyloid nucleation score result is “inactive”.

As to RLCAWEVNPARSKAGAV, the amyloid nucleation score is 0.886 ± 0.57.

In the case of TPIVGMLY, the amyloid nucleation score is -0.477 ± 0.55.

In turn, SQRNTLEFVLAGYKTTLVIS returned an amyloid nucleation score of -0.549 ± 0.27.

As for YNASVDVLHY, the amyloid nucleation score was -0.146 ± 1.

For the substance TIGFLFLVNWPSWNFLEEVF, the amyloid nucleation score result was “inactive”.

On to MIVVCVRLYQGRYGRMPDYE, for which the amyloid nucleation score is -0.16 ± 0.37.

In turn, RVRWYSCLVFMISTGFAFL showed an amyloid nucleation score of -0.702 ± 0.76.

As to KDVCY, the amyloid nucleation score was determined as 1.31 ± 0.23.

As for KLYSQTVSANLGVGWSSS, the amyloid nucleation score was determined as 2.12 ± 0.15.

The substance NTNRVVWVVLAMKI registered an amyloid nucleation score of 0.086 ± 0.77.

For the substance NICELPITHKVGSWV, the amyloid nucleation score is 0.518 ± 0.38.

As to RVGVIFRKYWSFRYFSCKEN, the amyloid nucleation score is -0.59 ± 1.1.

Consider SWEKQ, for which the amyloid nucleation score result is “inactive”.

For the substance FVYTLAYNRRWYSRAVSFES, the amyloid nucleation score is -0.461 ± 0.79.

With ALLDCMWCTCVCKVSSGVVH, the amyloid nucleation score entry was “inactive”.

RNYVIFTSEAKVAADIPLYL: the amyloid nucleation score amounted to 2.45 ± 0.21.

Consider MQWETSGVLCWSKQFGGDWV, for which the amyloid nucleation score is 0.864 ± 0.23.

Substance NMRSNRVSLVPDGMLRLSAN came in with an amyloid nucleation score of 1.39 ± 0.28.

ASSALHRVMVLAVTFFRHSS yielded an amyloid nucleation score of 0.839 ± 0.41.

For KFLKARFGYQST, the amyloid nucleation score is 1.3 ± 0.13.

The substance SNLSLMFLLRVSIGDKKEEE yielded an amyloid nucleation score of 7.555 ± 0.034.

Take SCRVLIGV: the amyloid nucleation score is 0.878 ± 0.46.

Take TFWNFGLAVQTARGIWALSW: the amyloid nucleation score turned out to be 6.57 ± 0.082.

Consider ASYLLKVVVYIHLSGSHGVD, for which the amyloid nucleation score came to 4.55 ± 0.068.

Turning to GITPRKDFFYYTLVDTCLVL, the amyloid nucleation score was -0.198 ± 0.46.

The substance CLEMFLKLCSLECARMKLPR yielded an amyloid nucleation score of 5.673 ± 0.04.

NYCRVDLHSYKCYVVCSMFM registered an amyloid nucleation score of 4.76 ± 0.11.

As to CVMSFYPELIILASSFCVPF, the amyloid nucleation score was -1.22 ± 0.36.

LGRKR showed an amyloid nucleation score of -0.725 ± 0.76.

KMMTSSFRMDGVNSTLIWLI showed an amyloid nucleation score of -0.08 ± 1.

For VINLGGSE, the amyloid nucleation score is 0.406 ± 0.38.

On to EACRLYHRVVKAFGEARCSV, for which the amyloid nucleation score stood at 0.518 ± 0.28.

For SLYFGIRYENRERCLFDLHV, the amyloid nucleation score was determined as 2.42 ± 0.17.

Consider MLERHKDRTRSGLKRGARET, for which the amyloid nucleation score worked out at 0.84 ± 0.46.

Take QFSLLTKYTNVHILGSEEFG: the amyloid nucleation score worked out at 0.388 ± 0.36.

Consider NYKYINVHGGYVSCLKREEE, for which the amyloid nucleation score entry was “inactive”.

In the case of RGTMVWTDCFMCLGLYKKVY, the amyloid nucleation score is -0.896 ± 0.56.

Substance AQISVSYGIWDSCTC showed an amyloid nucleation score of 8.773 ± 0.032.

As to EVGILVTVVYSGKWKVSRCM, the amyloid nucleation score amounted to 1.87 ± 0.48.

With AIWVMVANSMHCCVA, the amyloid nucleation score was 8.622 ± 0.027.

With QIRAPHGGYVYYAGVATYSN, the amyloid nucleation score is -0.206 ± 1.1.

The substance GCWYIDIWL returned an amyloid nucleation score of 1.73 ± 0.11.

Substance LLEAQSISCYRRGVYLLGQL showed an amyloid nucleation score of 3.32 ± 0.067.

RTHTKLGT yielded an amyloid nucleation score of 0.462 ± 0.42.
